Test results published in IntAct's records for PubMed 17113272.

B1: Catenin beta-1 (Mus musculus), Q02248 (parent)
chain: MATQADLMELDMAMEPDRKAAVSHWQQQSYLDSGIHSGATTTAPSLSGKGNPEEEDVDTSQVLYEWEQGFSQSFTQEQVADIDGQYAMTRAQRVRAAMFPETLDEGMQIPSTQFDAAHPTNVQRLAEPSQMLKHAVVNLINYQDDAELATRAIPELTKLLNDEDQVVVNKAAVMVHQLSKKEASRHAIMRSPQMVSAIVRTMQNTNDVETARCTAGTLHNLSHHREGLLAIFKSGGIPALVKMLGSPVDSVLFYAITTLHNLLLHQEGAKMAVRLAGGLQKMVALLNKTNVKFLAITTDCLQILAYGNQESKLIILASGGPQALVNIMRTYTYEKLLWTTSRVLKVLSVCSSNKPAIVEAGGMQALGLHLTDPSQRLVQNCLWTLRNLSDAATKQEGMEGLLGTLVQLLGSDDINVVTCAAGILSNLTCNNYKNKMMVCQVGGIEALVRTVLRAGDREDITEPAICALRHLTSRHQEAEMAQNAVRLHYGLPVVVKLLHPPSHWPLIKATVGLIRNLALCPANHAPLREQGAIPRLVQLLVRAHQDTQRRTSMGGTQQQFVEGVRMEEIVEGCTGALHILARDVHNRIVIRGLNTIPLFVQLLYSPIENIQRVAAGVLCELAQDKEAAEAIEAEGATAPLTELLHSRNEGVATYAAAVLFRMSEDKPQDYKKRLSVELTSSLFRTEPMAWNETADLGLDIGAQGEALGYRQDDPSYRSFHSGGYGQDALGMDPMMEHEMGGHHPGADYPVDGLPDLGHAQDLMDGLPPGDSNQLAWFDTDL
partner: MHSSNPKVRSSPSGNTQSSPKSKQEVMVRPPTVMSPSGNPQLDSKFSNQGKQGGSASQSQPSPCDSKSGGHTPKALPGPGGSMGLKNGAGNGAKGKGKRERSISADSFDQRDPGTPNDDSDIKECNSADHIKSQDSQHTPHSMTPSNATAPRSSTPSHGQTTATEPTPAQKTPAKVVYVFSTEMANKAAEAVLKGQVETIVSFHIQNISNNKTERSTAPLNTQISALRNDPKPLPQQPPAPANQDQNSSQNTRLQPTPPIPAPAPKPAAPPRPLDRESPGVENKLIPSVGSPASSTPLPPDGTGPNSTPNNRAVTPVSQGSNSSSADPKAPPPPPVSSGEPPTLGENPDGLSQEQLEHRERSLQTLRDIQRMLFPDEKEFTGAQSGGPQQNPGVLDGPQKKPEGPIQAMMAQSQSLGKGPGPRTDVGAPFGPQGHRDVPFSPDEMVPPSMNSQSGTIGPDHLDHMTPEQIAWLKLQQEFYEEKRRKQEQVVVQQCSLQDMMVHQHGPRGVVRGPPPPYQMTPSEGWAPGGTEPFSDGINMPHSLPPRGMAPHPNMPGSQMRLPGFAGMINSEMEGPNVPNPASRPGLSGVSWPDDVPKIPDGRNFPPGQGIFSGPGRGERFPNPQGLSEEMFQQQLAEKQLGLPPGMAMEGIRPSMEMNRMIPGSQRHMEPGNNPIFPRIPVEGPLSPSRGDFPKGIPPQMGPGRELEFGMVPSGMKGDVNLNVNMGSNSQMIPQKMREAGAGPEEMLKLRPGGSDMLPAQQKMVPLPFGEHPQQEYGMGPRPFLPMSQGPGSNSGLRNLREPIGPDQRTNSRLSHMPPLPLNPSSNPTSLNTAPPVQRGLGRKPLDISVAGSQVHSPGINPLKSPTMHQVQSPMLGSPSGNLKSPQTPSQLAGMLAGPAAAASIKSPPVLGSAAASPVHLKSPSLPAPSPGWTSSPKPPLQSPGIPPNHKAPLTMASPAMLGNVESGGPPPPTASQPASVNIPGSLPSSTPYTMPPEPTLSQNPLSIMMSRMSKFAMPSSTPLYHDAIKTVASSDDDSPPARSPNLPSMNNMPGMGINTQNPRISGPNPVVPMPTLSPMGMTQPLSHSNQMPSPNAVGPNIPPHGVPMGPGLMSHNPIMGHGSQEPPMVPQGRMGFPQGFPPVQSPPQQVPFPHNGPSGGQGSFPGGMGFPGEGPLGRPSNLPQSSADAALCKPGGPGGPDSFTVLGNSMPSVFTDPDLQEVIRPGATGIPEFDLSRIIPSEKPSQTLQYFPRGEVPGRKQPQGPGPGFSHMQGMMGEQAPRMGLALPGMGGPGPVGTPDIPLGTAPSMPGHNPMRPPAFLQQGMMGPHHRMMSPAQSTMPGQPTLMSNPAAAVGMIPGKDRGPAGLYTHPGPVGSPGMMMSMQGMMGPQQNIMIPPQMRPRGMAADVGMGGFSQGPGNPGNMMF
B2: Armadillo segment polarity protein (Drosophila melanogaster (Fruit fly)), P18824 (parent)
chain: MSYMPAQNRTMSHNNQYNPPDLPPMVSAKEQTLMWQQNSYLGDSGIHSGAVTQVPSLSGKEDEEMEGDPLMFDLDTGFPQNFTQDQVDDMNQQLSQTRSQRVRAAMFPETLEEGIEIPSTQFDPQQPTAVQRLSEPSQMLKHAVVNLINYQDDAELATRAIPELIKLLNDEDQVVVSQAAMMVHQLSKKEASRHAIMNSPQMVAALVRAISNSNDLESTKAAVGTLHNLSHHRQGLLAIFKSGGIPALVKLLSSPVESVLFYAITTLHNLLLHQDGSKMAVRLAGGLQKMVTLLQRNNVKFLAIVTDCLQILAYGNQESKLIILASGGPNELVRIMRSYDYEKLLWTTSRVLKVLSVCSSNKPAIVDAGGMQALAMHLGNMSPRLVQNCLWTLRNLSDAATKVEGLEALLQSLVQVLGSTDVNVVTCAAGILSNLTCNNQRNKATVCQVGGVDALVRTIINAGDREEITEPAVCALRHLTSRHVDSELAQNAVRLNYGLSVIVKLLHPPSRWPLIKAVIGLIRNLALCPANHAPLREHGAIHHLVRLLMRAFQDTERQRSSIATTGSQQPSAYADGVRMEEIVEGTVGALHILARESHNRALIRQQSVIPIFVRLLFNEIENIQRVAAGVLCELAADKEGAEIIEQEGATGPLTDLLHSRNEGVATYAAAVLFRMSEDKPQDYKKRLSIELTNSLLREDNNIWANADLGMGPDLQDMLGPEEAYEGLYGQGPPSVHSSHGGRAFHQQGYDTLPIDSMQGLEISSPVGGGGAGGAPGNGGAVGGASGGGGNIGAIPPSGAPTSPYSMDMDVGEIDAGALNFDLDAMPTPPNDNNNLAAWYDTDC
partner: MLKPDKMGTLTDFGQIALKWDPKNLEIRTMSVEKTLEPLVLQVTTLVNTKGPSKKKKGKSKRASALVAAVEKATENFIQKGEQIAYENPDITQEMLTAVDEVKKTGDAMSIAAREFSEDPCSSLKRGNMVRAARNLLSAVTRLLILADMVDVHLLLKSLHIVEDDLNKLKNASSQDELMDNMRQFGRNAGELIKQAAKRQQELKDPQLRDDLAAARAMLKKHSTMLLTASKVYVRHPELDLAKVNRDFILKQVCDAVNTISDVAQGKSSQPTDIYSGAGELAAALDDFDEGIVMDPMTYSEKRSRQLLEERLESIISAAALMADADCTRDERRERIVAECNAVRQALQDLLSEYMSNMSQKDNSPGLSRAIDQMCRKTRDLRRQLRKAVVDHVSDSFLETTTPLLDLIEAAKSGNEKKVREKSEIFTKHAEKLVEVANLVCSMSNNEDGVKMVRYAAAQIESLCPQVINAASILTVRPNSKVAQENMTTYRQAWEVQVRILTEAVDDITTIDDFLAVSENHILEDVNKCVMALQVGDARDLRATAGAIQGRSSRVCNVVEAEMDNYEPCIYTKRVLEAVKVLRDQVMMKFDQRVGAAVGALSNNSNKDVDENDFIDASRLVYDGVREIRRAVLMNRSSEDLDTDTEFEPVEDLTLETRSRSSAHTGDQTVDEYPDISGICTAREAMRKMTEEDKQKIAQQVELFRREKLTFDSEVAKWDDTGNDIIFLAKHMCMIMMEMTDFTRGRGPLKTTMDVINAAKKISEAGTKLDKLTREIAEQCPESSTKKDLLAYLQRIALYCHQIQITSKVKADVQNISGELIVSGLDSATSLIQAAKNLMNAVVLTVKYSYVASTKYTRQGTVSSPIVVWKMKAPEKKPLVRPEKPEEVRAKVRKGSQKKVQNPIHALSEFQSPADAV

Variants of: B1
Details: with bcl9_human BCL9, O00512

Variant	effect of a mutation on the interaction
D164A	disrupting interaction

Variants of: B2
Details: with ctna_drome alpha-Cat

Variant	effect of a mutation on the interaction
Y150A	disrupting interaction
